Consider 6 molecules from patent US20220242957A1 (MARENGO THERAPEUTICS, published 2022).

One assay addresses T1, human CSF1R (human, UniProt P07333 20-972).
T1 construct: whole, on cells; also called hCSF1R
Put plainly: flow cytometry on HEK-293T cells stably transduced with human CSF1R; anti-human Fc APC; percent APC positive. The procedure: HEK-293T cells were lentivirally transduced with human CSF1R and stable cell lines were generated. Nearly all transduced cells expressed high levels of CSF1R. Cells were washed with PBS containing 0.5% BSA and 0.1% sodium azide (staining buffer) and added to 96-well V-bottom plates with 100,000 cells/well. Human anti-CSF1R monovalent antibodies were added to the cells in 2.5 fold serial dilutions and incubated for 2 hour at room temperature. The plates were washed twice with staining buffer. The secondary antibody against human Fc conjugated to APC was added at 1:200 dilution (1.5 mg/ml stock) and incubated with the cells for 1 hour at 4° C. followed by washing with staining buffer. Cells were subsequently stained with a live/dead dye to exclude any dying cells and were fixed for 10 minutes with 4% paraformaldehyde at room temperature. The plates were read on CytoFLEX LS (Beckman Coulter). Data was calculated as the percent-APC positive population.
For orientation: A flow cytometer gives signals particle by particle.

The target of another assay is T2, human CSF1R-Fc ECD (human, UniProt P07333 20-517).
T2 construct: extracellular domain; not shown: Fc part of the coated reagent, not described
T2 sequence (P07333 20-517): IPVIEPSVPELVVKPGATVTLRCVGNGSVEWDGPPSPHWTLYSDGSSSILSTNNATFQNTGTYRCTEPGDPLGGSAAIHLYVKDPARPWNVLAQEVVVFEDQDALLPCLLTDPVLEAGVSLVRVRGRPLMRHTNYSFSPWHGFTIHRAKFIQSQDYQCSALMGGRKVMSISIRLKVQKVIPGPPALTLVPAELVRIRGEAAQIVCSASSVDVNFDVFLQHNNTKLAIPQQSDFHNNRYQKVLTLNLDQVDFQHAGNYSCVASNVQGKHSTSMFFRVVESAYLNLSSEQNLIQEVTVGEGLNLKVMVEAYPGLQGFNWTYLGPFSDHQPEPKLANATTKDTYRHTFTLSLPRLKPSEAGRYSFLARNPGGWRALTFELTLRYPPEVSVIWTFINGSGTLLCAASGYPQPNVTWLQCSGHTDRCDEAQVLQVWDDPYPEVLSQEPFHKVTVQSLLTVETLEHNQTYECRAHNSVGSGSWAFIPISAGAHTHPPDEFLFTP
Put plainly: ELISA, plate coated with 2 µg/mL human CSF1R, monovalent antibody titrated, anti-human Fc HRP. The procedure: Microplates were separately coated with 2 μg/mL of human or cyno CSF1R in 100 μL and blocked with 2% BSA. Serial dilutions of unlabeled monovalent human antibodies (11 points, 3-fold dilutions, 400 nM to […]) were transferred to the coated and blocked plates at 75 μL/well and incubated for 1 hr at room temperature. Plates were washed three times and incubated for 30 mins with anti-human Fc horseradish peroxidase conjugate followed by addition of TMB, a substrate of HRP. The plates were developed for 5 mins, stopped with 1M HCL and read at a wavelength of 450 nm.
In general terms: An ELISA detects its analyte on a solid surface through an enzyme-linked reagent.

T1 sequence (P07333 20-972): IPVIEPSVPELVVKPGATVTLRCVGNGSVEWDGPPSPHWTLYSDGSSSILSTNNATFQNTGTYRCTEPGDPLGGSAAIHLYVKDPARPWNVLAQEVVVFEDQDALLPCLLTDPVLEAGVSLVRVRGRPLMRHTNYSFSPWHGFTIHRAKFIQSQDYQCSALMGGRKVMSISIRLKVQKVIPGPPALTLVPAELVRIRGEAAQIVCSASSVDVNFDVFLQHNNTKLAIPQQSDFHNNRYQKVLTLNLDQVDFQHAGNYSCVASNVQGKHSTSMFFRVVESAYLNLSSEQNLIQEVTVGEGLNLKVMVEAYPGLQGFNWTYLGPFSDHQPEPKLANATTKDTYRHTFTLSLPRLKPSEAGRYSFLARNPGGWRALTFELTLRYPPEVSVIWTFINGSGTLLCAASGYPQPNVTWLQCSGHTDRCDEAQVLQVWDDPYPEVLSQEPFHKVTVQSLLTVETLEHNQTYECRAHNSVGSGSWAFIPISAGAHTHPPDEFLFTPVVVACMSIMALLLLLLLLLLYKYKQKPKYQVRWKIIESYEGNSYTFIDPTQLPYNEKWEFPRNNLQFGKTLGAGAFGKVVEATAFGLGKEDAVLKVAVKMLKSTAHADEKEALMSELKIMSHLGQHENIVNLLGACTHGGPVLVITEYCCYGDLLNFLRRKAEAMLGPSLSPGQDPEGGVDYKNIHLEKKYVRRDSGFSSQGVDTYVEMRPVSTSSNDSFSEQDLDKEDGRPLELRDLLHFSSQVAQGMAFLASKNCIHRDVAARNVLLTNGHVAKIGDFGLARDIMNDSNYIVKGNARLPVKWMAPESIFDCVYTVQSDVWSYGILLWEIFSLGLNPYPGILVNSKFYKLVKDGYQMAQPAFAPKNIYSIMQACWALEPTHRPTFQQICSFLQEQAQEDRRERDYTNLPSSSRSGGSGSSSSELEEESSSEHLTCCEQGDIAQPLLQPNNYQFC

B1: BIM0552 (antibody, human IgG1, lambda)
heavy: EVQLVESGGGLVQPGGSLRLSCAASGFTFSNDEMNWIRQAPGKGLEWVSYISSRSSTIYYADAVKGRFTISRDNARNSLYLQMNSLRAEDTAVYYCARGVDGDFSFDYWGQGTLVTVSSASTKGPSVFPLAPSSKSTSGGTAALGCLVKDYFPEPVTVSWNSGALTSGVHTFPAVLQSSGLYSLSSVVTVPSSSLGTQTYICNVNHKPSNTKVDKRVEPKSCDKTHTCPPCPAPELLGGPSVFLFPPKPKDTLMISRTPEVTCVVVDVSHEDPEVKFNWYVDGVEVHNAKTKPREEQYNSTYRVVSVLTVLHQDWLNGKEYKCKVSNKALPAPIEKTISKAKGQPREPQVCTLPPSREEMTKNQVSLSCAVKGFYPSDIAVEWESNGQPENNYKTTPPVLDSDGSFFLVSKLTVDKSRWQQGNVFSCSVMHEALHNHYTQKSLSLSPGK
light: QLVLTQPPSVSGAPGQRVTISCTGSSSNIGAGYDVHWYQQLPGTAPKLLIYGNSNRPSGVPDRFSGSKSGTSASLAITGLQAEDEADYYCQSYDSSLSEEVFGGGTKLTVLGQPKANPTVTLFPPSSEELQANKATLVCLISDFYPGAVTVAWKADGSPVKAGVETTKPSKQSNNKYAASSYLSLTPEQWKSHRSYSCQVTHEGSTVEKTVAPTECS
chain: not shown
notes: Heavy chain entry ends in X = K or absent; also called multispecific molecule 80; aCSF1R BI117 half-arm antibody
For B1, the binding result in the assay with human CSF1R and with human CSF1R-Fc ECD was “binds” in each case.

B2: BIM0543 (antibody, human IgG1, lambda)
heavy: EVQLVESGGGLVQPGGSLRLSCAASGFTFSNDEMNWIRQAPGKGLEWVSFISGGSSTIYYADAVKGRFTISRDNARNSLYLQMNSLRAEDTAVYYCARGVDGDFSFDYWGQGTLVTVSSASTKGPSVFPLAPSSKSTSGGTAALGCLVKDYFPEPVTVSWNSGALTSGVHTFPAVLQSSGLYSLSSVVTVPSSSLGTQTYICNVNHKPSNTKVDKRVEPKSCDKTHTCPPCPAPELLGGPSVFLFPPKPKDTLMISRTPEVTCVVVDVSHEDPEVKFNWYVDGVEVHNAKTKPREEQYNSTYRVVSVLTVLHQDWLNGKEYKCKVSNKALPAPIEKTISKAKGQPREPQVCTLPPSREEMTKNQVSLSCAVKGFYPSDIAVEWESNGQPENNYKTTPPVLDSDGSFFLVSKLTVDKSRWQQGNVFSCSVMHEALHNHYTQKSLSLSPGK
light: QLVLTQPPSVSGAPGQRVTISCTGSSSNIGAGYDVHWYQQLPGTAPKLLIYGNSNRPSGVPDRFSGSKSGTSASLAITGLQAEDEADYYCQSYDSSLSEEVFGGGTKLTVLGQPKANPTVTLFPPSSEELQANKATLVCLISDFYPGAVTVAWKADGSPVKAGVETTKPSKQSNNKYAASSYLSLTPEQWKSHRSYSCQVTHEGSTVEKTVAPTECS
chain: not shown
notes: Half-arm (monovalent) anti-human CSF1R antibody, three chains as BIM0542; Heavy chain entry ends in X = K or absent; also called multispecific molecule 71; aCSF1R BI117 C9-R2A half-arm antibody
Regarding B2, the binding result with human CSF1R and with human CSF1R-Fc ECD was “binds” each time.

B3: BIM0544 (antibody, human IgG1, lambda)
heavy: EVQLVESGGGLVQPGGSLRLSCAASGFTFSNDEMNWIRQAPGKGLEWVSYISSRSSTIYYADAVKGRFTISRDNARNSLYLQMNSLRAEDTAVYYCARNSDEDGSFDYWGQGTLVTVSSASTKGPSVFPLAPSSKSTSGGTAALGCLVKDYFPEPVTVSWNSGALTSGVHTFPAVLQSSGLYSLSSVVTVPSSSLGTQTYICNVNHKPSNTKVDKRVEPKSCDKTHTCPPCPAPELLGGPSVFLFPPKPKDTLMISRTPEVTCVVVDVSHEDPEVKFNWYVDGVEVHNAKTKPREEQYNSTYRVVSVLTVLHQDWLNGKEYKCKVSNKALPAPIEKTISKAKGQPREPQVCTLPPSREEMTKNQVSLSCAVKGFYPSDIAVEWESNGQPENNYKTTPPVLDSDGSFFLVSKLTVDKSRWQQGNVFSCSVMHEALHNHYTQKSLSLSPGK
light: QLVLTQPPSVSGAPGQRVTISCTGSSSNIGAGYDVHWYQQLPGTAPKLLIYGNSNRPSGVPDRFSGSKSGTSASLAITGLQAEDEADYYCQSYDSSLSEEVFGGGTKLTVLGQPKANPTVTLFPPSSEELQANKATLVCLISDFYPGAVTVAWKADGSPVKAGVETTKPSKQSNNKYAASSYLSLTPEQWKSHRSYSCQVTHEGSTVEKTVAPTECS
chain: not shown
notes: Half-arm (monovalent) anti-human CSF1R antibody, three chains as BIM0542; Heavy chain entry ends in X = K or absent; also called multispecific molecule 72; aCSF1R BI117 D1-R2A half-arm antibody
B3: the binding result with human CSF1R and with human CSF1R-Fc ECD was “binds” in each case.

B4: BIM0542 (antibody, human IgG1, lambda)
heavy: EVQLVESGGGLVQPGGSLRLSCAASGFTFSNDEMNWIRQAPGKGLEWVSYISSGSSTIYYADAVKGRFTISRDNARNSLYLQMNSLRAEDTAVYYCARGVDGDFSFDYWGQGTLVTVSSASTKGPSVFPLAPSSKSTSGGTAALGCLVKDYFPEPVTVSWNSGALTSGVHTFPAVLQSSGLYSLSSVVTVPSSSLGTQTYICNVNHKPSNTKVDKRVEPKSCDKTHTCPPCPAPELLGGPSVFLFPPKPKDTLMISRTPEVTCVVVDVSHEDPEVKFNWYVDGVEVHNAKTKPREEQYNSTYRVVSVLTVLHQDWLNGKEYKCKVSNKALPAPIEKTISKAKGQPREPQVCTLPPSREEMTKNQVSLSCAVKGFYPSDIAVEWESNGQPENNYKTTPPVLDSDGSFFLVSKLTVDKSRWQQGNVFSCSVMHEALHNHYTQKSLSLSPGK
light: QLVLTQPPSVSGAPGQRVTISCTGSSSNIGAGYDVHWYQQLPGTAPKLLIYGNSNRPSGVPDRFSGSKSGTSASLAITGLQAEDEADYYCQSYDSSLSEEVFGGGTKLTVLGQPKANPTVTLFPPSSEELQANKATLVCLISDFYPGAVTVAWKADGSPVKAGVETTKPSKQSNNKYAASSYLSLTPEQWKSHRSYSCQVTHEGSTVEKTVAPTECS
chain: not shown
notes: Heavy chain entry ends in X = K or absent; also called multispecific molecule 70; aCSF1R BI117 C5-R2A half-arm antibody
In the case of B4, the binding result in the assay with human CSF1R and with human CSF1R-Fc ECD was “binds” throughout.

B5: BIM0546 (antibody, human IgG1, lambda)
heavy: EVQLVESGGGLVQPGGSLRLSCAASGFTFSNDEMNWIRQAPGKGLEWVSYISSRSSTIYYADAVKGRFTISRDNARNSLYLQMNSLRAEDTAVYYCARGVDGDFSFDVWGQGTLVTVSSASTKGPSVFPLAPSSKSTSGGTAALGCLVKDYFPEPVTVSWNSGALTSGVHTFPAVLQSSGLYSLSSVVTVPSSSLGTQTYICNVNHKPSNTKVDKRVEPKSCDKTHTCPPCPAPELLGGPSVFLFPPKPKDTLMISRTPEVTCVVVDVSHEDPEVKFNWYVDGVEVHNAKTKPREEQYNSTYRVVSVLTVLHQDWLNGKEYKCKVSNKALPAPIEKTISKAKGQPREPQVCTLPPSREEMTKNQVSLSCAVKGFYPSDIAVEWESNGQPENNYKTTPPVLDSDGSFFLVSKLTVDKSRWQQGNVFSCSVMHEALHNHYTQKSLSLSPGK
light: QLVLTQPPSVSGAPGQRVTISCTGSSSNIGAGYDVHWYQQLPGTAPKLLIYGNSNRPSGVPDRFSGSKSGTSASLAITGLQAEDEADYYCQSYDSSLSEEVFGGGTKLTVLGQPKANPTVTLFPPSSEELQANKATLVCLISDFYPGAVTVAWKADGSPVKAGVETTKPSKQSNNKYAASSYLSLTPEQWKSHRSYSCQVTHEGSTVEKTVAPTECS
chain: not shown
notes: Half-arm (monovalent) anti-human CSF1R antibody, three chains as BIM0542; Heavy chain entry ends in X = K or absent; also called multispecific molecule 74; aCSF1R BI117 G1-R2B half-arm antibody
In the case of B5, the binding result with human CSF1R and with human CSF1R-Fc ECD was “binds” each time.

B6: BIM0545 (antibody, human IgG1, lambda)
heavy: EVQLVESGGGLVQPGGSLRLSCAASGFTFSNDEMNWIRQAPGKGLEWVSYITSKSSTIYYADSVKGRFTISRDNARNSLYLQMNSLRAEDTAVYYCARGVDGDFSFDYWGQGTLVTVSSASTKGPSVFPLAPSSKSTSGGTAALGCLVKDYFPEPVTVSWNSGALTSGVHTFPAVLQSSGLYSLSSVVTVPSSSLGTQTYICNVNHKPSNTKVDKRVEPKSCDKTHTCPPCPAPELLGGPSVFLFPPKPKDTLMISRTPEVTCVVVDVSHEDPEVKFNWYVDGVEVHNAKTKPREEQYNSTYRVVSVLTVLHQDWLNGKEYKCKVSNKALPAPIEKTISKAKGQPREPQVCTLPPSREEMTKNQVSLSCAVKGFYPSDIAVEWESNGQPENNYKTTPPVLDSDGSFFLVSKLTVDKSRWQQGNVFSCSVMHEALHNHYTQKSLSLSPGK
light: QLVLTQPPSVSGAPGQRVTISCTGSSSNIGAGYDVHWYQQLPGTAPKLLIYGNSNRPSGVPDRFSGSKSGTSASLAITGLQAEDEADYYCQSYDSSLSEEVFGGGTKLTVLGQPKANPTVTLFPPSSEELQANKATLVCLISDFYPGAVTVAWKADGSPVKAGVETTKPSKQSNNKYAASSYLSLTPEQWKSHRSYSCQVTHEGSTVEKTVAPTECS
chain: not shown
notes: Half-arm (monovalent) anti-human CSF1R antibody, three chains as BIM0542; Heavy chain entry ends in X = K or absent; also called multispecific molecule 73; aCSF1R BI117 E2-R2B half-arm antibody
For the molecule B6, the binding result with human CSF1R and with human CSF1R-Fc ECD was “binds” in each case.
